Assay: yeast display, Sf9 membrane polyspecificity reagent, FACS + sequencing; frameworks hold sequencing errors
Outline: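 Nanobodies from a synthetic yeast display library (Saccharomyces cerevisiae BJ5465), induced 36–48 hours with galactose, were stained 1 hour at 4 °C with 10% biotinylated, detergent-solubilized Sf9 membrane reagent, enriched on streptavidin microbeads, then FACS-sorted. Anti-HA (expression) and streptavidin (reagent binding) fluorescence set low and high (top ~1%) gates. Polyreactivity labels come from the gate of origin. Genes were colony-PCR amplified, MiSeq 2 × 250 sequenced and filtered by CDR length.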

Sequence | polyreactivity (PSR sort gate)
QVQLVESGGGLVQAGGSLRLSCADSGFTFYVYTMGWYRQAPAKERELVAAITWSGGSTYYADSVKGRFTISRDNAKNTVYLQMNSLKPEDTAVYYCNRVGYWVGHDSWGQGTQVTVSS | high polyreactivity
QVQLVDSGGGLVQAGGSLRLTCAASGGIFKRYAMGWYRQAPGKERELVAAISGRGGGTYYADSVKGRFTISRDNAKNTVYLQMNSLKPEDTAVYYCNARLSWSAFGYWGQGTQVTVSS | high polyreactivity
QVHLVESGGGLVQAGGSLRLSCAASGRIRYYAMGWYRQAPGKERELVAAITSSGGSTYYADSVKGRFTISRDNAKNTVYLQMNSLKPEVTAVYYCIAVASLSGDYWGQGTQVTVSS | high polyreactivity
QVQLVESGGGLVQAGGSLRLSCAASGIIFAHYAMGWYRQAPGKERELVAAISSSGATTYYADSVKGRFTISRDNAKNTVYFQMNSLKPEDTAVYYCNTETYHVRRLFDYWGQGTQVTVSS | low polyreactivity
QVQLVESGGGLVQAGGSLRLSCAASGRTFYYYAMGWYRQAPGKERELVAAISSNGGSTYADSVKGRYTISRDNAKNTVYLQMNSLKPEDTAVYYCNARFTYRWGMGYWGHGTQVTVSS | high polyreactivity
QVQLVESCGGLVQAGGSLRLRCAASGRIIRKYVMAWYRQAPGKERELVAAITGGGSTYYADSVKGRFTISRDNAKNTVYFQKNSLKPEDTAVYYCAADRQSAAHRLWGSEYGYWGQGTQVTVSS | high polyreactivity
QVQLVESGGGLVQAGGSLRLSCAASGFTFKGYTMGWYRQAPGKERELVAGISRRGGSTYYADSVKGRFTISRDNAKNTVYLQMNSLKPEDTAVYYCAADSQLTKFYYWGQGTQVTVSS | high polyreactivity
QVQLVESGGGLGQAGGRLRLSCAASGRTFAQNAMGWNRKAPGKERELVAAITSSGGSTYYADSVKGRFTISRDNAKNTVYLQMNSLKPEDTAVYYCAADRHYGTEYAYDYWGQGTQVTVSS | low polyreactivity
QVQLVESGGGLVQAGGSQRLSCDSSGSTFRYYAMGWYRPAPGKQRELVAVITWNGGGTYYADSMKGRFTISRDNAKNNVYLHMNSLKPVDTAVYYCAADASLYTDEYDNWGLGTQVTVSS | low polyreactivity
QVQLVESGGGLVQAGGSLRLSCAASGSIFALYAMGWYRQAPGKERELVAAIDWSDGGTYYADSVKGRFTISRDNAKNTVYLQMNSLKPEDTAVYYCAADQYWDGYDFLYDYWGQGTQVTVSS | low polyreactivity
QVQLVESGGGLVQAGGSLRLSCAASGITFGRNTMGWYRQAPGKERELVAAIDSGGNTYADSVKGRFTISRDNAKNTVYLQMNSLKPEDTAVYYCATVADEPRAYSGYEESDYWGQGTQVTVSS | low polyreactivity
QVQLVESGGGLVQAGGSLRLSCAASGITFDVNAMGWYRPAPGKERELVAAITAGGNTYYADSVKGRFTISRDNAKNTVYLQMNSLKPEDTAVYYCAAVSTSLYWAGYDYWGQGTQVTVSS | low polyreactivity
QVQLVESGGGLVQAGGSLRLSCAASGRIFRRYAMGWYRQAPGKERELVSAITSGSSTYYADSVKGRFTISRDNPKNTVNLQMISVKPEYSAVYYCAALGYTYKYYSYYWGHGTQVTVSS | high polyreactivity
QVQLVESGGVLVQAGGSLRLSCAASGSTFPRNAMGWYRQAPGKERELVAAISGRGVRTYYADSVKGRFTISRDNAKNTVYLQMNSLKPEDTAVYYCAAERQPYRTSSYNYWGQGTQVTVSS | high polyreactivity
QVQLVESGGGLVQAGGSLRLSCAASGIIFYYYAMGWYRQAPGKERELVACISYSGGSTYADSVKGRFTISRDNAKNTVYLQMNSLKPEDTAVYYCAADYDYGGHWYDYWGQGTQVTVSS | low polyreactivity
QVQLVESGGGLVQAGGSLRLSCAASGSTFRGYAMGWYRQAPGKERELVAAITSDGSTNYADSVKGRFTISRDNAKNTVYLQMNSLKPEDTAVYYCNVKATRKWWDRRVYRYNYWGQGTQVTVSS | high polyreactivity

Sequence | polyreactivity (PSR sort gate)
QVQLVETGGGLVQAGGSLRLSCAASGRTLYYYAMGWYRQAPGKERELVAAITRSGGSTYYADSVKGRFTISRDNAKNTVYLQMNSLKPEDTEVYYCNKYGYKGGVGYDYWGQGTQVTVSS | high polyreactivity
QVQLVETGGGLVRAGGSLRLSCAASGRPFGRYAMGWYRQGPGKETELVAAITRTGITNYEVSVKGRFTISRDNAKNTVYLHMNSLNPEDTAVYYGAARRWLNCYGTGYGYWGQGTLVTVSS | high polyreactivity
QVQLVESGGGLVQAGGSLRLSCAASGSTLSRYAMGWYRQAPGKERELVAAISWSGGRTYYADSVKGRFTISRDYAKNTVYLQMNSLKPEDTAVYYCAARYGYRTPDGDYWGQGTQVTVSS | high polyreactivity
QVQLVESGGGLVQAGGSLRLICAASGLIFYRYAMGWYRPEPGKERELVAVISRGGSTFYADSVKGRFTISRDNAKNTVYLQMNSLTPEDTAVYFCAAAQTSQAYRYWYYYWGQGTQVTVSW | high polyreactivity
QVQLVESGGGLDQAGGSLRLSCAASGSIFFGNAMGWSRQPPGKERELVAAITTSGGSTYYADSVKGRFTISRDNAKNTLYLQMNSLKPEDTAVYYCYARIASWLGSRYEYWGQGTQVTVSS | low polyreactivity
QVQLVESGGGLVQAGGSLRLSCAASGFTFAPYAMGWYRQAPGKERELVATIRSSGGRTYYADSVKGRFTISRDNAKNTVYLQMNSLKPEDTAVYYCAATGVYTKNPRGMDYWGQGTKVTVSS | high polyreactivity
QVQLVDSGGGLVQAGGSLRLSCAASGRTLAFNAMGWYRQAPGKERELVAVIRNGTSTNYADSVKGRFTISRDNAKNTVYLQMNSLKPEDTGVYYCNVPYYLPSYLSGYDYWGQGTQVTVSS | low polyreactivity
QVQLVESGGGLVQAGGSLRLSCAASGRIVGRYAMAWYRQAPGKERELVAAISSGTSTNYADSVKGRFTISRDNAKNTVYLQMNSLKPEDTAVYYCAVVLYRHWWYDYWGKGTQVTVSS | high polyreactivity
QVQLVESGGGLVQAGGSLRLSCAAYGRIFGYYAMGWYRQAPGKEREFVATISRSGGRTYYADSVKGRFTISRDNAKNTVYLQMNSLKPEDTAVYYCAKGVQFGSKTTFWYDYWGQGTQVTVSS | high polyreactivity
QVQLVESCGGLVQAGGSLRLSFAASGSTFGYYTMGWYRQAPGKERELVAAISWSGGSTYYADSVKGRFTISRDNAKNTVYLQMNSLKPEDTAVYFCAALGYTYKYYSYYWGQGTQVTVSS | high polyreactivity
QVQLVESGGGLVQAGGSLRLSCAASGSIFGRYGAMGWSRQSPGKERELVAAIRTSGVSTYYADSVKGRFTISRDNAKNTVYLQMNSLKPEDTAVYYCAARAGRYRWTRFDYWGQGTQVTVSS | low polyreactivity
QVQLVESGGGFVQAGGSLRLSSAASGRTFDTNAMGWYRQSPGKERELVAAISWSAGRTYYADSVKGRFTISRDNAKNTVYLQMNSLKPEDTAVYYCAADSFTPDYYSHDYCGQGTQVTVSS | low polyreactivity
QVQLVESGGGLVQAGGSLSLTCDASGFILYYYAMGRYRQAPGKERELVAAIDWDGDRTYYADSVKGRFTISRDIAKNTVYLQMNSLKPEDTAVYYCAAEWPVNFDYWGQGTQVTVSS | low polyreactivity
QVQLVESGGGLVQAGGSLRLSSAASGYIFTYYTMGCSRQAPGKERELVAAITYSGSRTRYADSVKGRFTISRDNAKNTVYLQMNSLKPEDNAVYYCAAVYRLKSGGEWRDSQFGYWGQGTQVTVSS | high polyreactivity
QVQLVESGGGLVQAGGSLRFSCSAYGSILPGYAMGWYRQAPGKERELVDAISYRGTSTYYADSVKGRFTISRDNAKNTVYLQMNSLKPEDTAVYYCAAGGSWFSYPPRMDYWGQGTQVTVSS | high polyreactivity
QVQLVESGGGLVQAGGSLRLSCAASGSTFGPNAMGWYRKAPGKERELVAALSKRGGRTDYADSVKGRFTISRDNAKNTVYLQMNSLKPEDTAVYYCNARDGSYYQGDYWGQGNQVTVSS | high polyreactivity

Source: the nanobody polyreactivity screen of Harvey et al. (2022)
